Test results: patent US20210283212A1 (RA PHARMACEUTICALS, published 2021)
Starred links: 1 amine or outer side, 2 acyl side, 3 side chain; linkers in the order of their positions; H or OH if unused. Positions of bridges follow the written chain, without caps; N, C: chain ends. Non-standard residues stand in square brackets, D forms with d. Primed or numbered codes have the meaning given here. No end group written: not given here. Lys‑C8 = N-ε-caprylic lysine, CCCCCCCC(=O)NCCCC[C@H](N[*:1])C(=O)[*:2]; mXylyl(3) = bridging moiety between the two residues given in brackets; m‑xylyl = bridging moiety between the two residues given in brackets; mXylyl″ = bridging moiety between the two marked residues; Ala(1H-tetrazol-5-yl) = N[C@@H](Cc1nnn[nH]1)C(=O)O; Trp(7-aza) = N[C@@H](Cc1c[nH]c2ncccc12)C(=O)O; mXylyl(4) = bridging moiety between residues; pXylyl = bridging moiety between residues; oXylylene = c1ccc(C[*:2])c(C[*:1])c1; NMeD = CN[C@@H](CC(=O)O)C(=O)O; dPhg = N[C@@H](C(=O)O)c1ccccc1; Chg = N[C@H](C(=O)O)C1CCCCC1; Phg = N[C@H](C(=O)O)c1ccccc1; Tle = CC(C)(C)[C@H](N)C(=O)O; Lys‑C12 = N-ε-lauryl lysine; NMeS = CN[C@@H](CO)C(=O)O; NMeA = CN[C@@H](C)C(=O)O; Nva = CCC[C@H](N)C(=O)O; Sar = CNCC(=O)O

B1: R3049 (peptide)
peptide: Ac-[Nva]C[Phg]T[Trp(7-aza)]EY[NMeS]HC[Nva]-NH2
modifications: linker 2-10 via oXylylene
SMILES: CCC[C@H](NC(=O)[C@@H]1CSCc2ccccc2CSC[C@H](NC(=O)[C@H](CCC)NC(C)=O)C(=O)N[C@@H](c2ccccc2)C(=O)N[C@@H]([C@@H](C)O)C(=O)N[C@@H](Cc2c[nH]c3ncccc23)C(=O)N[C@@H](CCC(=O)O)C(=O)N[C@@H](Cc2ccc(O)cc2)C(=O)N(C)[C@@H](CO)C(=O)N[C@@H](Cc2c[nH]cn2)C(=O)N1)C(N)=O
B2: R3001 (peptide)
peptide: Ac-[Nva]CYEN[Tle]Y[Trp(7-aza)]EY[Sar][Nva][NMeS]-NH2
SMILES: CCC[C@H](NC(C)=O)C(=O)N[C@@H](CS)C(=O)N[C@@H](Cc1ccc(O)cc1)C(=O)N[C@@H](CCC(=O)O)C(=O)N[C@@H](CC(N)=O)C(=O)N[C@H](C(=O)N[C@@H](Cc1ccc(O)cc1)C(=O)N[C@@H](Cc1c[nH]c2ncccc12)C(=O)N[C@@H](CCC(=O)O)C(=O)N[C@@H](Cc1ccc(O)cc1)C(=O)N(C)CC(=O)N[C@@H](CCC)C(=O)N(C)[C@@H](CO)C(N)=O)C(C)(C)C
B3: R3004 (peptide)
peptide: Ac-[Nva]CYNN[Tle]E[Trp(7-aza)]EYP[Phg][Tle]-NH2
SMILES: CCC[C@H](NC(C)=O)C(=O)N[C@@H](CS)C(=O)N[C@@H](Cc1ccc(O)cc1)C(=O)N[C@@H](CC(N)=O)C(=O)N[C@@H](CC(N)=O)C(=O)N[C@H](C(=O)N[C@@H](CCC(=O)O)C(=O)N[C@@H](Cc1c[nH]c2ncccc12)C(=O)N[C@@H](CCC(=O)O)C(=O)N[C@@H](Cc1ccc(O)cc1)C(=O)N1CCC[C@H]1C(=O)N[C@H](C(=O)N[C@H](C(N)=O)C(C)(C)C)c1ccccc1)C(C)(C)C
B4: R3028 (peptide)
peptide: Ac-[Tle]Y[Trp(7-aza)]EYP[Phg][Nva]-NH2
SMILES: CCC[C@H](NC(=O)[C@@H](NC(=O)[C@@H]1CCCN1C(=O)[C@H](Cc1ccc(O)cc1)NC(=O)[C@H](CCC(=O)O)NC(=O)[C@H](Cc1c[nH]c2ncccc12)NC(=O)[C@H](Cc1ccc(O)cc1)NC(=O)[C@@H](NC(C)=O)C(C)(C)C)c1ccccc1)C(N)=O
B5: R3023 (peptide)
peptide: Ac-YPYC[Phg][Trp(7-aza)][Tle]E[Nva]NY[Nva]E-NH2
SMILES: CCC[C@H](NC(=O)[C@H](Cc1ccc(O)cc1)NC(=O)[C@H](CC(N)=O)NC(=O)[C@H](CCC)NC(=O)[C@H](CCC(=O)O)NC(=O)[C@@H](NC(=O)[C@H](Cc1c[nH]c2ncccc12)NC(=O)[C@@H](NC(=O)[C@H](CS)NC(=O)[C@H](Cc1ccc(O)cc1)NC(=O)[C@@H]1CCCN1C(=O)[C@H](Cc1ccc(O)cc1)NC(C)=O)c1ccccc1)C(C)(C)C)C(=O)N[C@@H](CCC(=O)O)C(N)=O
B6: R3003 (peptide)
peptide: Ac-[Nva]CYEN[Tle]Y[Trp(7-aza)]EYP[Phg]P-NH2
SMILES: CCC[C@H](NC(C)=O)C(=O)N[C@@H](CS)C(=O)N[C@@H](Cc1ccc(O)cc1)C(=O)N[C@@H](CCC(=O)O)C(=O)N[C@@H](CC(N)=O)C(=O)N[C@H](C(=O)N[C@@H](Cc1ccc(O)cc1)C(=O)N[C@@H](Cc1c[nH]c2ncccc12)C(=O)N[C@@H](CCC(=O)O)C(=O)N[C@@H](Cc1ccc(O)cc1)C(=O)N1CCC[C@H]1C(=O)N[C@H](C(=O)N1CCC[C@H]1C(N)=O)c1ccccc1)C(C)(C)C

Biological target: human C5 protein (human, UniProt P01031 19-673; P01031 678-1676)
Assay: cell-based or functional assay

| Binder | Avg. IC50, human hemolysis assay |
| --- | --- |
| Ac-CAERFCD[Tle]Y[Trp(7-aza)]EYP[Phg][Lys‑C12]-NH2 (linker 1-6 via m‑xylyl) [R3164] | 36 nM |
| Ac-CVERFC[Ala(1H-tetrazol-5-yl)][Tle]Y[Trp(7-aza)]EYP[Chg][Nva]-NH2 (linker 1-6 via mXylyl(3)) [R3168] | 7.5 nM |
| Ac-[Nva]CYEN[Tle]Y[Trp(7-aza)]EYP[Phg][Nva]C-NH2 (linker 2-14 via mXylyl″) [R3019] | 1320 nM |
| B1 | > 3100 nM |
| Ac-[Nva]C[Phg]A[Trp(7-aza)]EY[NMeS]HC[Nva]-NH2 (linker 2-10 via mXylyl(4)) [R3033] | 131 nM |
| B2 | 67.2 nM |
| Ac-CAERFCD[Tle]Y[Trp(7-aza)]EYP[Phg]K-NH2 (linker 1-6 via m‑xylyl) [R3161] | 7 nM |
| Ac-[Nva]C[Phg]T[Trp(7-aza)]EY[NMeS]AC[Nva]-NH2 (linker 2-10 via mXylyl(4)) [R3038] | 140 nM |
| Ac-CVEAFCD[Tle]Y[Trp(7-aza)]EYP[dPhg][Nva]-NH2 (linker 1-6 via mXylyl(3)) [R3154] | 592 nM |
| Ac-CAERFCD[Tle]Y[Trp(7-aza)]EYP[Phg][Lys‑C8]-NH2 (linker 1-6 via m‑xylyl) [R3166] | 17.5 nM |
| B3 | 53.5 nM |
| Ac-C[Tle]Y[Trp(7-aza)]EY[NMeS]HC-NH2 (linker 1-9 via mXylyl″) [R3016] | > 13000 nM |
| B4 | > 10000 nM |
| MCSERYCEVRWEY-NH2 (linker 2-7 via mXylyl″) [R3020] | 24.6 nM |
| Ac-[Nva]C[Phg]T[Trp(7-aza)]EY[NMeS]HC[Nva]P[Nva]-NH2 (cysteine pairing not given here) [R3022] | > 10200 nM |
| Ac-[Nva]CYEN[Tle]Y[Trp(7-aza)]ECP[Phg][Nva]-NH2 (linker 2-10 via mXylyl″) [R3018] | > 5730 nM |
| Ac-AC[Phg]T[Trp(7-aza)]EY[NMeS]HC[Nva]-NH2 (linker 2-10 via mXylyl(4)) [R3031] | 1090 nM |
| Ac-C[Phg]T[Trp(7-aza)]EY[NMeS]HC-NH2 (linker 1-9 via mXylyl″) [R3015] | > 3960 nM |

| Binder | Avg. IC50, human hemolysis assay |
| --- | --- |
| B5 | > 100000 nM |
| Ac-[Nva]C[Phg]T[Trp(7-aza)]EY[NMeS]HC[Nva]-NH2 (linker 2-10 via pXylyl) [R3050] | 42.9 nM |
| Ac-CVERFCA[Tle]Y[Trp(7-aza)]EYP[Phg][Nva]-NH2 (linker 1-6 via m‑xylyl) [R3157] | 84.5 nM |
| Ac-[Nva]C[Phg]T[Trp(7-aza)]EA[NMeS]HC[Nva]-NH2 (linker 2-10 via mXylyl(4)) [R3036] | > 50000 nM |
| Ac-CVEAFCD[Tle]Y[Trp(7-aza)]EYP[Phg][Nva]-NH2 (linker 1-6 via mXylyl(3)) [R3153] | 175 nM |
| Ac-CVERFC[NMeD][Tle]Y[Trp(7-aza)]EYP[Chg][Nva]-NH2 (linker 1-6 via m‑xylyl) [R3172] | 12 nM |
| Ac-[Nva]C[Phg]T[Trp(7-aza)]EY[NMeA]HC[Nva]-NH2 (linker 2-10 via mXylyl(4)) [R3037] | 276 nM |
| Ac-[Nva]C[Phg]T[Trp(7-aza)]EY[NMeS]HCA-NH2 (linker 2-10 via mXylyl(4)) [R3039] | 240 nM |
| Ac-[Nva]C[Phg]T[Trp(7-aza)]AY[NMeS]HC[Nva]-NH2 (linker 2-10 via mXylyl(4)) [R3035] | > 50000 nM |
| Ac-CAERFCD[Tle]Y[Trp(7-aza)]EYP[dPhg]K-NH2 (linker 1-6 via m‑xylyl) [R3162] | 16.5 nM |
| Ac-CVERACD[Tle]Y[Trp(7-aza)]EYP[Phg][Nva]-NH2 (linker 1-6 via mXylyl(3)) [R3155] | 1530 nM |
| B6 | 13.9 nM |
| Ac-[Nva]C[Phg]T[Trp(7-aza)]EY[NMeS]HC[Nva]-NH2 (bridge 2-10) [R3042] | > 100000 nM |
| Ac-CVERFCA[Tle]Y[Trp(7-aza)]EYP[dPhg][Nva]-NH2 (linker 1-6 via m‑xylyl) [R3158] | 327 nM |
| Ac-[Nva]CAT[Trp(7-aza)]EY[NMeS]HC[Nva]-NH2 (linker 2-10 via mXylyl(4)) [R3032] | > 10000 nM |
| Ac-[Nva]C[Phg]T[Trp(7-aza)]EY[NMeS]HC[Nva]P[Nva] (bridge 2-10) [R3040] | > 100000 nM |
| Ac-CVERACD[Tle]Y[Trp(7-aza)]EYP[dPhg][Nva]-NH2 (linker 1-6 via mXylyl(3)) [R3156] | > 10000 nM |
